In publication PMC2835651:

Test system: Cc1cn([C@H]2C[C@H](O)[C@@H](COP(=O)(O)OP(=O)(O)OP(=O)(O)O)O2)c(=O)[nH]c1=O
Experiment: purified protein
Conditions: poly(rA)/oligo(dT)15 template/primer; 25-250 μM TTP; labelled compound

With PFV PR-RT (Human spumaretrovirus) the Km was 45 (± 12) μM and the kcat was 7.1 s⁻¹.
